Assay results: patent US11426422B2, “SHP2 inhibitors and methods of use thereof” (Research Development Foundation, priority 2018, dated 2022)
Where no end group is shown, it is not given here. [ ]: non-standard residue; d: D form. pY = N[C@@H](Cc1ccc(OP(=O)(O)O)cc1)C(=O)O; pS = N[C@@H](COP(=O)(O)O)C(=O)O

Experiments:
AP2M1 (residues 160-435) = target: T1, AP2M1 (residues 160-435) (Homo sapiens, UniProt Q96CW1); assay: in vitro peptide pull-down of AP2M1 with IRS1 peptides; format: binding; settings: peptide beads pull-down, SDS-PAGE, Coomassie
T1 construct: The AP2M1 fragment (residues 160-435) was cloned into a modified pET28a; His6 (N, cleaved yes); made in house; host or cells: E. coli BL21(DE3)
T1 sequence (Q96CW1 160-435): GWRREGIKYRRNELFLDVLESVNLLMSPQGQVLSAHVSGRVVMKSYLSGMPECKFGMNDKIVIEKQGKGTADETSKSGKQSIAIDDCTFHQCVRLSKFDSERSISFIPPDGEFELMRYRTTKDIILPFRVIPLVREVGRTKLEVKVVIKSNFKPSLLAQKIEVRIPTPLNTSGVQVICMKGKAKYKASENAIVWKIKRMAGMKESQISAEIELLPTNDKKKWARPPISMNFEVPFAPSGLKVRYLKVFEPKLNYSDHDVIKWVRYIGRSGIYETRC
Procedure: FIGS. 2A-I. The MAPK pathway and SHP2 promote insulin-activated IR endocytosis. (FIG. 2A) HepG2 cells expressing IR-GFP WT were starved, treated with the indicated inhibitors for 2 h, treated without or with 100 nM insulin for 20 min, and stained with anti-GFP (IR; green) and DAPI (blue). See also FIG. 7A for representative images. Quantification of the ratios of PM and IC IR-GFP signals of cells was shown (mean±SD; *p<0.0001). (FIG. 2B) Binding of IRS1 peptides to AP2M1 (residues 160-435). Input and proteins bound to IRS1-peptide beads were analyzed by SDS-PAGE and stained with Coomassie (CBB). The relative band intensities are shown below (mean±SD; n=4 independent experiments). (FIG. 2C) ITC analysis of binding between IRS1 peptides and AP2M1 (residue 160-435), with the Kd indicated. (FIG. 2D) The IRS1 peptides were incubated with active SHP2 for the indicated durations, spotted onto membranes, and detected with the anti-pY612-IRS1 antibody. (FIG. 2E) Quantification of the relative SHP2 activity in FIG. 2D (mean±SD; n=4 independent experiments; *p<0.0001). (FIG. 2F) Model of the regulation of insulin-activated IR endocytosis by a phosphorylation switch on IRS1/2. Insulin-bound IR phosphorylates itself and IRS1/2, and activates the PI3K-AKT and MAPK pathways. SHP2 acts upstream of RAS-RAF and promotes the activation of MAPK pathway. p31^comet binds to the IR-bound MAD2 and blocks IR-AP2 association to prevent premature IR endocytosis. In feedback regulation, activated ERK1/2 phosphorylate S616 and other sites on IRS1. […]
For GST pull-down assays of in vitro translated (IVT) IRS1 proteins, beads bound to GST-AP2M1 or GST were incubated with IVT products diluted in the cell lysis buffer at 4° C. for 2 h. After incubation and washing, proteins bound to beads were eluted with the SDS loading buffer, resolved with SDS-PAGE, and detected with Coomassie staining or immunoblotting with the appropriate antibodies. […]

SHP2 = target: T2, SHP2 (Homo sapiens, UniProt Q06124); assay: in vitro phosphatase assay, dephosphorylation of IRS1 peptides by active SHP2; format: biochemical; settings: doubly versus singly phosphorylated IRS1 peptide; active SHP2 2.9 μM, peptide 2.6 mM, 37° C.
T2 construct: purchased SignalChem
T2 sequence (Q06124 1-593): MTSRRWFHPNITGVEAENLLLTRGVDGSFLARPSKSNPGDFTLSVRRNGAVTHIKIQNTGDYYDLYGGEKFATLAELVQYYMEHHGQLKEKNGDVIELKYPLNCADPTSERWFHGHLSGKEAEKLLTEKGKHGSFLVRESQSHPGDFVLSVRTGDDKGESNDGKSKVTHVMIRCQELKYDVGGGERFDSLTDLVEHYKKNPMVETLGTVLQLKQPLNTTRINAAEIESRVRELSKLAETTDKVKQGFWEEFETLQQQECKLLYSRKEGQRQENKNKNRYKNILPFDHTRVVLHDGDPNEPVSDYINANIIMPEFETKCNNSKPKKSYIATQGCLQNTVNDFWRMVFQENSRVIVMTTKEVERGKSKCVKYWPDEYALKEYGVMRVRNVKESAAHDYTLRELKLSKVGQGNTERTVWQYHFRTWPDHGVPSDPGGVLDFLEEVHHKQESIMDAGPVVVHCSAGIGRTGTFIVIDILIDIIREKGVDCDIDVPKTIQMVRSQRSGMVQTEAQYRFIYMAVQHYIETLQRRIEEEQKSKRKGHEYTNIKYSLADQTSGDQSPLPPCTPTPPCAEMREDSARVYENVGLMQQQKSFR
Description: To assess whether serine phosphorylation (pS616) of the YMPMS motif (SEQ ID NO:13) promotes dephosphorylation of pY612 by SHP2, its dephosphorylation kinetics were examined. […] Decreased IRS1 pS616 has been correlated with increased pY608 in vivo (Bard-Chapeau et al., 2005), and therefore, aside from directly augmenting the IRS1-AP2M1 interaction, ERK1/2-dependent phosphorylation of IRS1 indirectly promotes AP2M1 binding through enhancing the dephosphorylation of IRS1 by SHP2. Consistent with a role of ERK1/2-dependent phosphorylation of IRS1 in IR endocytosis, expression of the RNAi-resistant IRS1 phospho-mimicking mutant (3SD), but not the phospho-deficient mutant (3SA), restored IR endocytosis in 293FT cells depleted of IRS1/2 (FIG. 1G and FIG. 6E).
Active SHP2 (2.9 μM, SignalChem) diluted in the phosphatase dilution buffer (50 mM imidazole, pH 7.2, 0.2% 2-mercaptoethanol, 65 ng/μl BSA) was incubated with IRS1 peptides (2.6 mM) at 37° C. for the indicated time points. Two microliters of reaction products were spotted onto 0.45 m nitrocellulose membrane (BioRad) and dried completely. The membrane was blocked with 5% nonfat milk in TBS for 1 h, and washed once with TBS-T (0.02% Tween 20). […] The membranes were scanned with the Odyssey Infrared Imaging System (LI-COR, Lincoln, Nebr.) for quantification.

pYMPMpS: doubly phosphorylated IRS1 peptide CHTDDGpYMPMpSPGVA (SEQ ID NO:16) (CHTDDG[pY]MPM[pS]PGVA)
binding to AP2M1 (AP2M1 (residues 160-435)): abolished AP2M1 binding
dephosphorylation of pY612 by SHP2 (SHP2): promoted pY612 dephosphorylation by SHP2
